This is an account of results in patent publication US20160040149A1, “Compositions Having Dicamba Decarboxylase Activity and Methods of Use” (priority 2013, published 2016).

Assay [1] in a line: DNA shuffling libraries: 14CO2 capturing assay in 384-well format, fold activity of backbone (Megatable 2). Conditions: relative to backbone SEQ ID NO: 133 (DDEC0201).
Assay [2] in a line: Saturation mutagenesis of SEQ ID NO:109: dicamba decarboxylation activity of point mutants (CO2 released), fold of backbone (Tables 7, 8, Megatable 1). The conditions noted are these: decarboxylation activity (CO2 released) of point mutant vs unmutated backbone protein; backbone SEQ ID NO: 109.

B1: 148 (protein)
chain: MAQGKEALEEHFAIPETLNDSAGFVPGDYWKELQHRLLDIQDTRLKLMDAHQIETMILSLAAVGVQAIPDRRKAIEIARRANDMLAEECAKRPDRFLAFAALPLQDVDAASEELQRTVNTLGFVGALVNGFSVEGDGQTPLYYDLPQYRPFWGEVEKLDVPFYLHPRNPLPQDSRIYDGHPWLLGPTWAFAQETAVHALRLMASGLFDEHPRLNIILGHLGEGLPYMMYRIDHRIAWVKLPPRYPAKRRFMDYFNENFHITTSGNFRTQTLIDAILEIGADRILFSTDWPFENIDHAAAWFNATSIAEADRVKIGRTNARRLFKLDGA
modifications: Dicamba decarboxylase variant
Regarding B1, the entries for the “Fold Activity” value in assay [1] and in assay [2] were 0.8 fold and 1.5 fold, respectively.

B2: 141 (protein)
chain: MAQGKVALEEHFAIPETLNDSAGFVPGDYWKELQHRLLDIQDTRLKLMDAHGIETMILSLAAPAVQAIPDRRKAIEIARRANDMLAEECAKRPDRFLAFAALPLQDPDAATEELQRCVNDLGFVGALVNGFSQEGDGQTPLYYDLPQYRPFWGEVEKLDVPFYLHPRNPLPQDSRIYDGHPWLLGPTWAFAQETAVHALRLMASGLFDEHPRLNIILGHMGEGLPYMMYRIDHRIAWVHEPPRYPAKRRFMDYFNENFHITTSGNFRTQTLIDAILEIGADRILFSTDWPFENIDHAADWFNATSIAEADRVKIGRTNARRLFKLDLD
modifications: Dicamba decarboxylase variant
As for B2, the entries for the “Fold Activity” value in assay [1] and in assay [2] were 0.9 fold and 1.1 fold, respectively.

B3: 143 (protein)
chain: MAQGKVALEEHFAIPETLQDSAGFVPSEYLKELQHRLLDIQDTRLKLMDAHGIETMILSLAAPAVQAIPDRRKAIEIARRANDFLAEECAKRPDRFLAFAALPMQDVDAATEELQRCVNDLGFVGALVNGFSVEGDGQTPLYYDLPQYRPFWGEVEKLDVPFYLHPRNPLPQDSRIYDGHPWLLGPTWAFAQETAVHALRLMASGLFDEHPRLNIILGHMGEGLPYMMYRIDHRIAWVHEPPRYPAKRRFMDYFNENFHITTSGNFRTQTLIDAILEIGADRILFSTDWPFENIDHAADWFNATSIAEADRVKIGRTNARRLFKLDGD
modifications: Dicamba decarboxylase variant
Turning to B3, the “Fold Activity” value in assay [1] was 1.3 fold; in assay [2], 1.2 fold.

B4: 151 (protein)
chain: MAQGKVALEEHFAIPETLQDSAGFVPGDYWKELQHRLLDIQDTRLKLMDAHGIETMILSLAAPAVQAIPDRRKAIEIARRANDFLAEECAKRPDRFLAFAALPLQDPDAATEELQRCVNDLGFVGALVNGFSQEGDGQTPLYYDLPQYRPFWGEVEKLDVPFYLHPRNPLPQDSRIYDGHPWLLGPTWAFAQETAVHALRLMASGLFDEHPRLNIILGHMGEGLPYMMYRIDHRIAWVHQPPRYPAKRRFMDYFNENFHITTSGNFRTQTLIDAILEIGADRILFSTDWPFENIDHAADWFNATSIAEADRVKIGRTNARRLFKLDGD
modifications: Dicamba decarboxylase variant
As for B4, the “Fold Activity” value in assay [1] is reported as 1.0 fold; in assay [2], 1.9 fold.

B5: 149 (protein)
chain: MAQGKVALEEHFAIPETLQDSAGFVPSEYLKELQHRLLDIQDTRLKLMDAHGIETMILSLAAPAVQAIPDRRKAIEIARRANDMLAEECAKRPDRFLAFAALPLQDPDAATEELQRCVNTLGFVGALVNGFSVEGDGQTPLYYDLPQYRPFWGEVEKLDVPFYLHPRNPLPQDSRIYDGHPWLLGPTWAFAQETAVHALRLMASGLFDEHPRLNIILGHLGEGLPYMMYRIDHRIAWVHEPPRYPAKRRFMDYFNENFHITTSGNFRTQTLIDAILEIGADRILFSTDWPFENIDHAADWFNATSIAEADRVKIGRTNARRLFKLDGD
modifications: Dicamba decarboxylase variant
As for B5, the results for the “Fold Activity” value in assay [1] and in assay [2] were 1.1 fold and 1.6 fold, respectively.

B6: 147 (protein)
chain: MAQGKVALEEHFAIPETLQDSAGFVPGDYWKELQHRLLDIQDTRLKLMDAHGIETMILSLAAPAVQAIPDRRKAIEIARRANDFLAEECAKRPDRFLAFAALPMQDVDAATEELQRCVNDLGFVGALVNGFSQEGDGQTPLYYDLPQYRPFWGEVEKLDVPFYLHPRNPLPQDSRIYDGHPWLLGPTWAFAQETAVHALRLMASGLFDEHPRLNIILGHMGEGLPYMMYRIDHRIAWVKLPPRYPAKRRFMDYFNENFHITTSGNFRTQTLIDAILEIGADRILFSTDWPFENIDHAADWFNATSIAEADRLKIGRTNARRLFKLDLD
modifications: Dicamba decarboxylase variant
Turning to B6, the figures for the “Fold Activity” value in assay [1] and in assay [2] were 0.8 fold and 1.3 fold, respectively.

B7: 144 (protein)
chain: MAQGKVALEEHFAIPETLQDSAGFVPGDYWKELQHRLLDIQDTRLRLMDAHGIETMILSLAAPAVQAIPDRRKAIEIARRANDFLAEECAKRPDRFLAFAALPLQDPDAASEELQRCVNDLGFVGALVNGFSQEGDGQTPLYYDLPQYRPFWGEVEKLDVPFYLHPRNPLPQDSRIYDGHPWLLGPTWAFAQETAVHALRLMASGLFDEHPRLNIILGHMGEGLPYMMYRIDHRIAWVHEPPRYPAKRRFMDYFNENFHITTSGNFRTQTLIDAILEIGADRILFSTDWPFENIDHAADWFNATSIAEADRLKIGRTNARRLFKLDGD
modifications: Dicamba decarboxylase variant
Turning to B7, the “Fold Activity” value in assay [1] and in assay [2] was 1.2 fold each time.

B8: 150 (protein)
chain: MAQGKVALEEHFAIPETLQDSAGFVPGDYWKELQHRLLDIQDTRLKLMDAHGIETMILSLAAPAVQAIPDRRKAIEIARRANDFLAEECAKRPDRFLAFAALPLQDPDAATEELQRTVNDLGFVGALVNGFSQEGDGQTPLYYDLPQYRPFWGEVEKLDVPFYLHPRNPLPQDSRIYDGHPWLLGPTWAFAQETAVHALRLMASGLFDEHPRLNIILGHMGEGLPYMMYRIDHRIAWVKLPPRYPAKRRFMDYFNENFHITTSGNFRTQTLIDAILEIGADRILFSTDWPFENIDHAADWFNATSIAEADRVKIGRTNARRLFKLDGD
modifications: Dicamba decarboxylase variant
Consider B8, for which the figures for the “Fold Activity” value in assay [1] and in assay [2] were 1.1 fold and 1.4 fold, respectively.

B9: 152 (protein)
chain: MAQGKVALEEHFAIPETLQDSAGFVPGDYWKELQHRLLDIQDTRLKLMDAHGIETMILSLAAPAVQAIPDRRKAIEIARRANDFLAEECAKRPDRFLAFAALPLQDPDAATEELQRCVNDLGFVGALVNGFSVEGDGQTPLYYDLPQYRPFWGEVEKLDVPFYLHPRNPLPQDSRIYDGHPWLLGPTWAFAQETAVHALRLMASGLFDEHPRLNIILGHMGEGLPYMMYRIDHRIAWVKLPPRYPAKRRFMDYFNENFHITTSGNFRTQTLIDAILEIGADRILFSTDWPFENIDHAADWFNATSIAEADRVKIGRTNARRLFKLDGA
modifications: Dicamba decarboxylase variant
For the molecule B9, the “Fold Activity” value is given as 1.1 fold in assay [1] and 1.8 fold in assay [2].

B10: 146 (protein)
chain: MAQGKVALEEHFAIPETLQDSAGFVPGDYWKELQHRLLDIQDTRLKLMDAHGIETMILSLAAPAVQAIPDRRKAIEIARRANDFLAEECAKRPDRFLAFAALPLQDPDAATEELQRCVNDLGFVGALVNGFSQEGDGQTPLYYDLPQYRPFWGEVEKLDVPFYLHPRNPLPQDSRIYDGHPWLLGPTWAFAQETAVHALRLMASGLFDEHPRLNIILGHMGEGLPYMMYRIDHRIAWVKLPPRYPAKRRFMDYFNENFHITTSGNFRTQTLIDAILEIGADRILFSTDWPFENIDHAADWFNATSIAEADRVKIGRTNARRLFKLDGD
modifications: Dicamba decarboxylase variant
As for B10, the “Fold Activity” value in assay [1] is listed as 1.2 fold; in assay [2], 1.3 fold.

B11: 145 (protein)
chain: MAQGKVALEEHFAIPETLQDSAGFVPGDYWKELQHRLLDIQDTRLKLMDAHGIETMILSLAAPAVQAIPDRRKAIEIARRANDFLAEECAKRPDRFLAFAALPLQDPDAATEELQRCVNDLGFVGALVNGFSVEGDGQTPLYYDLPQYRPFWGEVEKLDVPFYLHPRNPLPQDSRIYDGHPWLLGPTWAFAQETAVHALRLMASGLFDEHPRLNIILGHMGEGLPYMMYRIDHRIAWVKLPPRYPAKRRFMDYFNENFHITTSGNFRTQTLIDAILEIGADRILFSTDWPFENIDHATDWFNATSIAEADRVKIGRTNARRLFKLDGA
modifications: Dicamba decarboxylase variant
As for B11, the “Fold Activity” value worked out at 1.1 fold in assay [1] and 1.2 fold in assay [2].

B12: 142 (protein)
chain: MAQGKVALEEHFAIPETLQDSAGFVPGDYWKELQHRLLDIQDTRLKLMDAHGIETMILSLAAPAVQAIPDRRKAIEIARRANDFLAEECAKRPDRFLAFAALPLQDPDAATEELQRTVNDLGFVGALVNGFSQEGDGQTPLYYDLPQYRPFWGEVEKLDVPFYLHPRNPLPQDSRIYDGHPWLLGPTWAFAQETAVHALRLMASGLFDEHPRLNIILGHLGEGLPYMMYRIDHRIAWVHEPPRYPAKRRFMDYFNENFHITTSGNFRTQTLIDAILEIGADRILFSTDWPFENIDHAADWFNATSIAEADRVKIGRTNARRLFKLDLD
modifications: Dicamba decarboxylase variant
Consider B12, for which the figures for the “Fold Activity” value in assay [1] and in assay [2] were 1.4 fold and 1 fold, respectively.

B13: 153 (protein)
chain: MAQGKVALEEHFAIPETLQDSAGFVPSEYLKELQHRLLDIQDTRLKLMDAHGIETMILSLAAPAVQAIPDRRKAIEIARRANDFLAEECAKRPDRFLAFAALPLQDVDAATEELQRCVNDLGFVGALVNGFSVEGDGQTPLYYDLPQYRPFWGEVEKLDVPFYLHPRNPLPQDSRIYDGHPWLLGPTWAFAQETAVHALRLMASGLFDEHPRLNIILGHLGEGLPYMMYRIDHRIAWVKLPPRYPAKRRFMDYFNENFHITTSGNFRTQTLIDAILEIGADRILFSTDWPFENIDHAADWFNATSIAEADRLKIGRTNARRLFKLDGD
modifications: Dicamba decarboxylase variant
Take B13: the entries for the “Fold Activity” value in assay [1] and in assay [2] were 1.8 fold and 1.7 fold, respectively.
